Experimental data published in article doi:10.1101/2023.06.16.545308 (bioRxiv, 2023).
Where two headings read alike, the source gives them in different places.

B1: a2 peptide (9-mer presented by HLA-A2) (peptide)
peptide: ILKEPVHGV
B2: b27 peptide (9-mer presented by HLA-B27) (peptide)
peptide: RRYQKSTEL
B3: b27’’ peptide (7-mer) (peptide)
peptide: RRYSTEL

Columns and labels:
[1] = biological target: T1, human transporter associated with antigen processing (TAP), heterodimer of TAP1 and TAP2 (human, UniProt Q03518;Q03519); experiment: cryo-EM structure
[2] = biological target: T1, human transporter associated with …; experiment: cryo-EM structure; remark: listed apart in the source

T1 sequence (Q03518 whole entry, chain 1 of 2): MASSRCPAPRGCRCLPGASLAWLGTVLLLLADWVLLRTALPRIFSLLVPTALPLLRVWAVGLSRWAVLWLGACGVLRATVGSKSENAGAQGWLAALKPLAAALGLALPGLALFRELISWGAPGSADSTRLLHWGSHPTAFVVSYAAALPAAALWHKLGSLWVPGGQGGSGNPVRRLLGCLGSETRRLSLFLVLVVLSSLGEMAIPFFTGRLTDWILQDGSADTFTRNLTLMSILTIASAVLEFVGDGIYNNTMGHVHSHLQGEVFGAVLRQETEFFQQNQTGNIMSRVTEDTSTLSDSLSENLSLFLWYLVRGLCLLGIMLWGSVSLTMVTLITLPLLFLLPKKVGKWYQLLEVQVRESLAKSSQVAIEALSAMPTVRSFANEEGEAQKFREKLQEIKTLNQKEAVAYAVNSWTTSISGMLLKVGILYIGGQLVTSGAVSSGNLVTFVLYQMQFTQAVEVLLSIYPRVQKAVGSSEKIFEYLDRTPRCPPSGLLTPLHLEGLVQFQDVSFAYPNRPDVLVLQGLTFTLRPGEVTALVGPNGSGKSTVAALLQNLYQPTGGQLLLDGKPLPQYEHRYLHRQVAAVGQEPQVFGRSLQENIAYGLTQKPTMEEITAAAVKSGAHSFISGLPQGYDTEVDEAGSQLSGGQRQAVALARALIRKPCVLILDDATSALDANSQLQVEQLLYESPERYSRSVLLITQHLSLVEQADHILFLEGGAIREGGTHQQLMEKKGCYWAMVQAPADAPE
T1 sequence (Q03519 whole entry, chain 2 of 2): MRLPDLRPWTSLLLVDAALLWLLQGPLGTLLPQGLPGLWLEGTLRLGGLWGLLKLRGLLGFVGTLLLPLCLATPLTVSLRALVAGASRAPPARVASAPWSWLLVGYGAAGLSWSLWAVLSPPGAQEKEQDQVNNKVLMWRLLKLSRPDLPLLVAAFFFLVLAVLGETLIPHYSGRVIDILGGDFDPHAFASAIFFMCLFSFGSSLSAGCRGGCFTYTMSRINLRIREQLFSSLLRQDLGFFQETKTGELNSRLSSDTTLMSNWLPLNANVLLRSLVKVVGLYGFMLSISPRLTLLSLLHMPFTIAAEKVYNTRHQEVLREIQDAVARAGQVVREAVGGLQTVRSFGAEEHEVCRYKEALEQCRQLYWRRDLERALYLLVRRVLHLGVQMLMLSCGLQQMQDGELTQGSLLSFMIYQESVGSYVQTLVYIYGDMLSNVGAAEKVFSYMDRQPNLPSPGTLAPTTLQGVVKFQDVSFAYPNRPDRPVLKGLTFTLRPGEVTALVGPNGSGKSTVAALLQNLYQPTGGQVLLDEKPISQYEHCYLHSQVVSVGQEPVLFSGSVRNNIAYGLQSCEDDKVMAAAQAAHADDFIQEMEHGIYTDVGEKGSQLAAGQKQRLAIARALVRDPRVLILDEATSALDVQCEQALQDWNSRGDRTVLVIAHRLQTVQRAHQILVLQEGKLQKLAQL

Binder | binding result [1] | binding result [2]
B1 | binds | –
B2 | binds | –
B3 | – | binds
